Experimental data taken from article PMC3319578, “Talin Contains A C-Terminal Calpain2 Cleavage Site Important In Focal Adhesion Dynamics” (PLoS ONE, 2012).
Changes are numbered by the printed parent chain. Names may count otherwise.

B1: talin1 2300–2541 polypeptide (C-terminal actin-binding site and dimerisation domain), wild type (domain or fragment, mouse, UniProt P26039 2300-2541, looked up)
chain: DPTVIAENELLGAAAAIEAAAKKLEQLKPRAKPKEADESLNFEEQILEAAKSIAAATSALVKAASAAQRELVAQGKVGAIPANALDDGQWSQGLISAARMVAAATNNLCEAANAAVQGHASQEKLISSAKQVAASTAQLLVACKVKADQDSEAMKRLQAAGNAVKRASDNLVKAAQKAAAFEDQENETVVVKEKMVGGIAQIIAAQEEMLRKERELEEARKKLAQIRQQQYKFLPSELRDEH
notes: Cloned into pET-151/D-TOPO; dimer by gel filtration; also called talin 2300–2541; ABS-DD; source: E. coli, purified (Ni-NTA, TEV cleavage, Resource-Q)
B2: talin1 2300–2541 E2492G mutant (domain or fragment, mouse, UniProt P26039 2300-2541, looked up)
chain: B1 chain with E193G
notes: talin1, mouse, residues 2300–2541 with E2492G; Dimer by gel filtration; also called E2494G (as printed once in the text); source: E. coli, purified (Ni-NTA, TEV cleavage, Resource-Q)

Target: the molecule itself
Test: SEC; analytical gel filtration, Superdex-75 (10/300), room temperature, 20 mM Tris pH 8.0, 150 mM NaCl, 2 mM DTT, 0.8 ml/min

| Protein | stoichiometry N |
| --- | --- |
| B1 | 2 |
| B2 | 2 |
